Assay results taken from PMC2800831.

Experiments:
[1] = molecular target: Recombinant mouse fibulin-2 (mouse) (UniProt P37889); experiment: SPR
[2] = molecular target: Recombinant mouse fibulin-5 (mouse) (UniProt Q9WVH9); experiment: SPR
Chain of UniProt Q9WVH9 (Q9WVH9 24-448): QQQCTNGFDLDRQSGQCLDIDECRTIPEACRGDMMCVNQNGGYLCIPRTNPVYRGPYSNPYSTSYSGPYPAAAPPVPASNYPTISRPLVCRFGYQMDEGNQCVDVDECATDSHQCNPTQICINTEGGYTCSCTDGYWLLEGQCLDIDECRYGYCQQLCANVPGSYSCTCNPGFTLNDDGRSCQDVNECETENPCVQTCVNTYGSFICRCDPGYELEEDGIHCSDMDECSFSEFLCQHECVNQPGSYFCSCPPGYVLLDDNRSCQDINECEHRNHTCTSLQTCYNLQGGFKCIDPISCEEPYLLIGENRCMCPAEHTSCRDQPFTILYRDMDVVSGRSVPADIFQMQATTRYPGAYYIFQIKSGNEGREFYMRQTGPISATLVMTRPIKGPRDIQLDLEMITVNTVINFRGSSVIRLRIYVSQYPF

Chain of UniProt P37889 (P37889 27-1221): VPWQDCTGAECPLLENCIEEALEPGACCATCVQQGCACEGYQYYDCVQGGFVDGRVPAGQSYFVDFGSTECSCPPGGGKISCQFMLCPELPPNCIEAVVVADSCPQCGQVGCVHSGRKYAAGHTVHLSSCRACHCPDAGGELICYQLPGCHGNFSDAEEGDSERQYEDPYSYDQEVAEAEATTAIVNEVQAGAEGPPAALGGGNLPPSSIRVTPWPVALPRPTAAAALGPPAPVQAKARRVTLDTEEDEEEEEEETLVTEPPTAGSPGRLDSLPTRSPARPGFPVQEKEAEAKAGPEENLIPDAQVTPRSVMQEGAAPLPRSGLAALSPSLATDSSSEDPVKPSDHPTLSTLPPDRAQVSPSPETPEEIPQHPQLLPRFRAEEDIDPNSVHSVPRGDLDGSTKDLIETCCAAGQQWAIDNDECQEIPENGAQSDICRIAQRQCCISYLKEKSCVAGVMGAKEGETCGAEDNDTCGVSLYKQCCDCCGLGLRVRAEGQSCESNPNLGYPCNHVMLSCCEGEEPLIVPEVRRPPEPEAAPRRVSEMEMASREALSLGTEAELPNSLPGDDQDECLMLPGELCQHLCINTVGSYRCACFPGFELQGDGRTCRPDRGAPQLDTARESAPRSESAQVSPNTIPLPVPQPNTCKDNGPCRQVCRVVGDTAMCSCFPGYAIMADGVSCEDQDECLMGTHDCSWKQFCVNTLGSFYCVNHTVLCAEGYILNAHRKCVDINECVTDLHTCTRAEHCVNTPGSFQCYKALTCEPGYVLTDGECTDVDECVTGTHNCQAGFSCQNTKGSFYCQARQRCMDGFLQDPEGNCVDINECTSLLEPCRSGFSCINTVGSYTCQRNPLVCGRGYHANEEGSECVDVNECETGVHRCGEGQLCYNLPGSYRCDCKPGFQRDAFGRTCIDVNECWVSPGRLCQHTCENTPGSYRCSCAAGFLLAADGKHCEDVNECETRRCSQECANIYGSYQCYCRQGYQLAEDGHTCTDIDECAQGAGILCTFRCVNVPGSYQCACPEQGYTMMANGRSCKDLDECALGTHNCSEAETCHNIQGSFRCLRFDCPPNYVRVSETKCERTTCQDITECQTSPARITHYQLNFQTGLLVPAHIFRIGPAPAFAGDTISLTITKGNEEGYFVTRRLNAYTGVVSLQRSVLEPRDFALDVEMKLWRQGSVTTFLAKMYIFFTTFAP

Row | Substance | Kd [1] [nM] | Kd [2] [nM]
1 | Recombinant mouse fibulin-5 (from UniProt Q9WVH9 24-448) (natural protein) | 1650 | 
2 | Recombinant mouse fibulin-2 (from UniProt P37889 27-1221) (natural protein) |  | 100
